Assays:
[1] = target: human α-thrombin (human), P00734; experiment: cell-based or functional assay
[2] = target: human α-thrombin (human), P00734; experiment: amidolytic assay, 25° C.; from competitive inhibition at inhibitor above 20 nM (footnote c); non-competitive behaviour below 20 nM
[3] = target: human α-thrombin (human), P00734; experiment: amidolytic assay, Tos-Gly-Pro-Arg-pNA hydrolysis by human α-thrombin, 25° C.

Row | Binder | IC50 (DCT), clotting assay, 37° C.; recombinant peptide WD22-R-P^(d) [1] [nM] | IC50 (DCT), clotting assay, 37° C.; synthetic peptide [1] [nM] | Ki [2] [nM] | IC50 (DCT), clotting assay, 37° C.; recombinant peptide WD22-R-YP^(d) [1] [nM] | Ki [3] [nM] | IC50 (DCT), clotting assay, 37° C. [1] [nM]
1 | WDPRPQRHNDGDFEPIPEEYLQ (modifications not checked) [WD22-R-P] | 8.1 | 6.7 | 171 | – | – | –
2 | WDPRPQRHNDGDYEPIPEEYLQ (modifications not checked) [WD22-R-YP] | – | 4.5 | 358 | 4.8 | – | –
3 | FNPRP (modifications not checked) [FN] | – | – | – | – | > 2000 | > 100000
4 | WDPRPQLHNDGDFEPIPEEYLQ (modifications not checked) [WD22-L-P] | – | – | – | – | 39 | 26
